In article PMC7618510, “The accessory protein MRAP2 directly interacts with melanocortin-3 receptor to enhance signaling” (Science signaling, 2025):
One block for each binder: values may come before it.

Experiments:
[1] = target: T1, HA-Halo-MC3R (melanocortin-3 receptor) (human, UniProt P41968 1-323, CA-Sulfo646 dye on the Halo tag (SiMPull)); test: single-molecule pull-down (SiMPull) with photobleaching step counting; two colours: lysate of HEK293 cells cotransfected with 300 ng HA-Halo-tagged and 600 ng FLAG-CLIP-tagged plasmid, labelled at the surface with CA-Sulfo646 and BC-DY547, lysed in 0.5% LMNG/0.05% CHS; HA-tagged protein immobilised on HA antibody; co-localised spots and bleaching steps counted by TIRF; settings: partners not purified
T1 construct: melanocortin-3 receptor (MC3R), human; S14 and the UBIRA repository (DOI 10.25500/edata.bham.00001385); also called ss-HA-Halo-MC3R; source: HEK293 (AD-293), transiently transfected, in lysate (LMNG-CHS) or in cells; not shown: HA, N-terminal, kept; Halo, N-terminal, kept
T1 sequence (P41968 whole entry): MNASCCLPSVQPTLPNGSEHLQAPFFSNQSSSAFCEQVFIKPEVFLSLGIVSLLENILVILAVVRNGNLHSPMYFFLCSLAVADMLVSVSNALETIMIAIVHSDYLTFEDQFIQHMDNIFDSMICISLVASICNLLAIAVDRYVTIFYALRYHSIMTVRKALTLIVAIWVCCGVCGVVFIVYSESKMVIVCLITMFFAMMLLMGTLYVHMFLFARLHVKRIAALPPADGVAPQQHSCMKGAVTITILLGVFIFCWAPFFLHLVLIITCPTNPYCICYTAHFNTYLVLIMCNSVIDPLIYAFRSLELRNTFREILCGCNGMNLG

[2] = target: the molecule itself; test: single-molecule pull-down (SiMPull) with photobleaching step counting; one colour: HEK293 cells expressing the HA-Halo-tagged protein alone, labelled at the surface with membrane-impermeable CA-Sulfo646, lysed in 0.5% LMNG/0.05% CHS, immobilised by the HA tag on slides with biotinylated HA antibody, single molecules imaged by TIRF

stoichiometry N [1]: 1 MRAP2 per MC3R
B1: FLAG-CLIP-MRAP2 (melanocortin-2 receptor accessory protein 2) (natural protein, human, UniProt Q96G30 1-205, looked up)
chain: MSAQRLISNRTSQQSASNSDYTWEYEYYEIGPVSFEGLKAHKYSIVIGFWVGLAVFVIFMFFVLTLLTKTGAPHQDNAESSEKRFRMNSFVSDFGRPLEPDKVFSRQGNEESRSLFHCYINEVERLDRAKACHQTTALDSDVQLQEAIRSSGQPEEELNRLMKFDIPNFVNTDQNYFGEDDLLISEPPIVLETKPLSQTSHKDLD
modifications: BC-DY547 (CLIP-surface 547) dye on the CLIP tag
notes: melanocortin-2 receptor accessory protein 2 (MRAP2), human; S14 and the UBIRA repository; also called ss-FLAG-CLIP-MRAP2; source: HEK293 (AD-293), transiently transfected, in lysate (LMNG-CHS); not shown: FLAG, N-terminal, kept; CLIP, N-terminal, kept

B2: mGluR2 (receptor, UniProt P31421 19-872, looked up)
chain: EGPAKKVLTLEGDLVLGGLFPVHQKGGPAEECGPVNEHRGIQRLEAMLFALDRINRDPHLLPGVRLGAHILDSCSKDTHALEQALDFVRASLSRGADGSRHICPDGSYATHSDAPTAVTGVIGGSYSDVSIQVANLLRLFQIPQISYASTSAKLSDKSRYDYFARTVPPDFFQAKAMAEILRFFNWTYVSTVASEGDYGETGIEAFELEARARNICVATSEKVGRAMSRAAFEGVVRALLQKPSARVAVLFTRSEDARELLAATQRLNASFTWVASDGWGALESVVAGSERAAEGAITIELASYPISDFASYFQSLDPWNNSRNPWFREFWEERFHCSFRQRDCAAHSLRAVPFEQESKIMFVVNAVYAMAHALHNMHRALCPNTTHLCDAMRPVNGRRLYKDFVLNVKFDAPFRPADTDDEVRFDRFGDGIGRYNIFTYLRAGSGRYRYQKVGYWAEGLTLDTSFIPWASPSAGPLPASRCSEPCLQNEVKSVQPGEVCCWLCIPCQPYEYRLDEFTCADCGLGYWPNASLTGCFELPQEYIRWGDAWAVGPVTIACLGALATLFVLGVFVRHNATPVVKASGRELCYILLGGVFLCYCMTFVFIAKPSTAVCTLRRLGLGTAFSVCYSALLTKTNRIARIFGGAREGAQRPRFISPASQVAICLALISGQLLIVAAWLVVEAPGTGKETAPERREVVTLRCNHRDASMLGSLAYNVLLIALCTLYAFKTRKCPENFNEAKFIGFTMYTTCIIWLAFLPIFYVTSSDYRVQTTTMCVSVSLSGSVVLGCLFAPKLHIILFQPQKNVVSHRAPTSRFGSAAPRASANLGQGSGSQFVPTVCNGREVVDSTTSSL
notes: metabotropic glutamate receptor 2 (mGluR2); also called dimeric GPCR mGluR2
stoichiometry N [2]: 2
